For test [1], the target named is T1, 小鼠PD-L1 (全长, 表达于293F细胞 WBP315.293F.mPro1.C1) (mouse, UniProt Q9EP73 19-290).
T1 construct: whole, on cells; also called mouse PD-L1
Description: flow cytometry on 293F cells expressing mouse PD-L1. A general note: Flow cytometry measures light scatter and fluorescence of single cells or particles in a stream.

Test [2] deals with T2, 人PD-L1 (全长, 表达于CHO-K1细胞 WBP315.CHO-K1.hPro1.C11) (human, UniProt Q9NZQ7 19-290).
T2 construct: whole, on cells; also called human PD-L1; hPD-L1
T2 sequence (Q9NZQ7 19-290): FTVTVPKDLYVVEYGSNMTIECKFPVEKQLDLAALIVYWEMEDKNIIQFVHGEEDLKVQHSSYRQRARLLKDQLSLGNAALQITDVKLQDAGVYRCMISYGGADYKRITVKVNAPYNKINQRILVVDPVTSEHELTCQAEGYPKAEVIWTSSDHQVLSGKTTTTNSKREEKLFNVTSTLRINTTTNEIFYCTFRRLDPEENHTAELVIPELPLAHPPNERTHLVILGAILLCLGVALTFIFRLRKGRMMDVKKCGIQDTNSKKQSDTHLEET
The test is described as follows: flow cytometry on CHO-K1 cells expressing human PD-L1.

T1 sequence (Q9EP73 19-290): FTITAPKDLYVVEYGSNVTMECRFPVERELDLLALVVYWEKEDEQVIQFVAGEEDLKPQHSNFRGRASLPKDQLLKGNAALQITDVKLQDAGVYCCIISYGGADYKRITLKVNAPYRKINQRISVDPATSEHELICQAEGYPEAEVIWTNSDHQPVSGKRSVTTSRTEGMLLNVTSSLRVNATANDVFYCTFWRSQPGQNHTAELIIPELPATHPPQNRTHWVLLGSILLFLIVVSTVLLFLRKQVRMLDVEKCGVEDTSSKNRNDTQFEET

B1: W3156-AP3R2-1A3-z12-hIgG1 (Fc fusion)
chain: EVQLVESGGGLVQPGGSLRLSCAASGHFSNLAVNWFRQAPGKERELVAGILWSGGSTFYADSVKGRFTISRGNAENMLYLQMNSLRAEDTAVYYCNTGTNWGQGTLVTVSS
notes: tested as hIgG1 format; also called 抗PD-L1 VHH抗体; 亲本抗体 (PD-L1 arm); not shown: hIgG1 part (hinge/Fc) of the VHH-hIgG1 format
Regarding B1, the binding result in test [1] and in test [2] was “binds” in each case.

For the origin of these results see CN113214400A (FUKANG SHANGHAI HEALTH TECH CO LTD, dated 2021).
